Test results taken from article PMC3410980 (Bioconjugate chemistry, 2012).
Non-standard residues stand in square brackets, D forms with d. Residues, ends and D or L forms follow the SMILES beside them. *: point of attachment. DOTA = O=C(O)CN1CCN(CC(=O)O)CCN(CC(=O)*)CCN(CC(=O)O)CC1; Nspe = C[C@H](NCC(=O)O)c1ccccc1; Nphe = O=C(O)CNCc1ccccc1; Nlys = NCCCCNCC(=O)O

Key:
[1] = tail vein injection, 0.25-24 h
in vivo = conditions: Balb/c, mouse, total radioactivity
[2] = hydrophobicity by reverse phase analytical HPLC; format: physicochemical; conditions: retention time in reverse phase HPLC column (C18, 55 °C)

| Compound | excretion route, kidney activity and clearance seen by PET [1] | oral absorption / bioavailability (administered orally) | lower liver uptake relative to ^64Cu-1 (intravenous) | tissue uptake at 2 h (in vivo; kidney, iv) | tissue uptake at 24 h (in vivo; kidney, iv) | tissue uptake at 2 h (in vivo; liver, iv) | tissue uptake at 24 h (in vivo; liver, iv) | tissue uptake at 2 h (in vivo; stomach, po) | tissue uptake at 24 h (in vivo; stomach, po) | hydrophobicity (tR in minutes) [2] |
| --- | --- | --- | --- | --- | --- | --- | --- | --- | --- | --- |
| C[C@@H](c1ccccc1)N(CC(N)=O)C(=O)CN(CCCCN)C(=O)CN(C(=O)CN(C(=O)CN(CCCCN)C(=O)CN(C(=O)CN(C(=O)CN(CCCCN)C(=O)CN(C(=O)CN(C(=O)CN(CCCCN)C(=O)CN1CCN(CC(=O)O)CCN(CC(=O)O)CCN(CC(=O)O)CC1)[C@@H](C)c1ccccc1)[C@@H](C)c1ccccc1)[C@@H](C)c1ccccc1)[C@@H](C)c1ccccc1)[C@@H](C)c1ccccc1)[C@@H](C)c1ccccc1 [^64Cu-3, metal not drawn] ({DOTA}-[Nlys][Nspe][Nspe][Nlys][Nspe][Nspe][Nlys][Nspe][Nspe][Nlys][Nspe]-NH2) | highest kidney activity of all three peptoids | poor bioavailability | more than 50% | ~31.2 %ID/g | 19.3 ± 2.6 %ID/g | 56.7 ± 1.8 %ID/g | 47.3 ± 4.4 %ID/g | – | – | – |
| C[C@@H](c1ccccc1)N(CC(N)=O)C(=O)CN(C(=O)CN(CCCCN)C(=O)CN(C(=O)CN(C(=O)CN(CCCCN)C(=O)CN(C(=O)CN(C(=O)CN(CCCCN)C(=O)CN(C(=O)CN(C(=O)CN(CCCCN)C(=O)CN1CCN(CC(=O)O)CCN(CC(=O)O)CCN(CC(=O)O)CC1)[C@@H](C)c1ccccc1)[C@@H](C)c1ccccc1)[C@@H](C)c1ccccc1)[C@@H](C)c1ccccc1)[C@@H](C)c1ccccc1)[C@@H](C)c1ccccc1)[C@@H](C)c1ccccc1 [^64Cu-1, metal not drawn] ({DOTA}-[Nlys][Nspe][Nspe][Nlys][Nspe][Nspe][Nlys][Nspe][Nspe][Nlys][Nspe][Nspe]-NH2) | main excretion route is likely hepatic | – | – | 14.4 ± 0.9 %ID/g | – | 138 ± 13.4 %ID/g | 95.6 ± 10.5 %ID/g | 4.82 ± 1.44 %ID/g | 0.54 ± 0.22 %ID/g | – |
| C[C@@H](c1ccccc1)N(CC(N)=O)C(=O)CN(CCCCN)C(=O)CN(C(=O)CN(C(=O)CN(CCCCN)C(=O)CN(C(=O)CN(C(=O)CN(CCCCN)C(=O)CN(C(=O)CN(C(=O)CN(CCCCN)C(=O)CN1CCN(CC(=O)O)CCN(CC(=O)O)CCN(CC(=O)O)CC1)[C@@H](C)c1ccccc1)[C@@H](C)c1ccccc1)[C@@H](C)c1ccccc1)[C@@H](C)c1ccccc1)[C@@H](C)c1ccccc1)[C@@H](C)c1ccccc1 [Compound 3] ({DOTA}-[Nlys][Nspe][Nspe][Nlys][Nspe][Nspe][Nlys][Nspe][Nspe][Nlys][Nspe]-NH2) | – | – | – | – | – | – | – | – | – | 23.9 min |
| NCCCCN(CC(=O)N(CC(=O)N(CC(=O)N(CCCCN)CC(=O)N(CC(=O)N(CC(=O)N(CCCCN)CC(=O)N(CC(=O)N(CC(=O)N(CCCCN)CC(=O)N(CC(=O)N(CC(N)=O)Cc1ccccc1)Cc1ccccc1)Cc1ccccc1)Cc1ccccc1)Cc1ccccc1)Cc1ccccc1)Cc1ccccc1)Cc1ccccc1)C(=O)CN1CCN(CC(=O)O)CCN(CC(=O)O)CCN(CC(=O)O)CC1 [^64Cu-2, metal not drawn] ({DOTA}-[Nlys][Nphe][Nphe][Nlys][Nphe][Nphe][Nlys][Nphe][Nphe][Nlys][Nphe][Nphe]-NH2) | main excretion route is likely hepatic | – | – | 12.6 ± 2.3 %ID/g | – | 125 ± 16.8 %ID/g | 72.2 ± 11.3 %ID/g | – | – | – |
| NCCCCN(CC(=O)N(CC(=O)N(CC(=O)N(CCCCN)CC(=O)N(CC(=O)N(CC(=O)N(CCCCN)CC(=O)N(CC(=O)N(CC(=O)N(CCCCN)CC(=O)N(CC(=O)N(CC(N)=O)Cc1ccccc1)Cc1ccccc1)Cc1ccccc1)Cc1ccccc1)Cc1ccccc1)Cc1ccccc1)Cc1ccccc1)Cc1ccccc1)C(=O)CN1CCN(CC(=O)O)CCN(CC(=O)O)CCN(CC(=O)O)CC1 [Compound 2] ({DOTA}-[Nlys][Nphe][Nphe][Nlys][Nphe][Nphe][Nlys][Nphe][Nphe][Nlys][Nphe][Nphe]-NH2) | – | – | – | – | – | – | – | – | – | 24.1 min |
